Experimental findings from patent publication US20190309050A1 (SUZHOU THINKING POWER BIOTECHNOLOGY, published 2019) are described below.

As usually defined, the Kd is the constant that tells how readily two partners part at equilibrium. Read a high Kd as a looser complex. For orientation: EC50 means the midpoint of the concentration-response curve. The term kon denotes a measure of how fast the partners come together. The term koff denotes the rate constant with which the complex falls apart.

The target in test [1] is Robo1 protein (ORIGEN, Art. No.: TP327713) (UniProt Q9Y6N7). Put plainly: SPR (BIAcore), Robo1 bound to CM5 chip; column headed 'Kd(nM)'. In general terms: Surface plasmon resonance follows binding to a sensor surface in real time, without labels.
Chain of Robo1 protein (ORIGEN, Art. No.: TP327713) (UniProt Q9Y6N7) (Q9Y6N7 other isoform, or with tags, fused parts or gaps limits assumed): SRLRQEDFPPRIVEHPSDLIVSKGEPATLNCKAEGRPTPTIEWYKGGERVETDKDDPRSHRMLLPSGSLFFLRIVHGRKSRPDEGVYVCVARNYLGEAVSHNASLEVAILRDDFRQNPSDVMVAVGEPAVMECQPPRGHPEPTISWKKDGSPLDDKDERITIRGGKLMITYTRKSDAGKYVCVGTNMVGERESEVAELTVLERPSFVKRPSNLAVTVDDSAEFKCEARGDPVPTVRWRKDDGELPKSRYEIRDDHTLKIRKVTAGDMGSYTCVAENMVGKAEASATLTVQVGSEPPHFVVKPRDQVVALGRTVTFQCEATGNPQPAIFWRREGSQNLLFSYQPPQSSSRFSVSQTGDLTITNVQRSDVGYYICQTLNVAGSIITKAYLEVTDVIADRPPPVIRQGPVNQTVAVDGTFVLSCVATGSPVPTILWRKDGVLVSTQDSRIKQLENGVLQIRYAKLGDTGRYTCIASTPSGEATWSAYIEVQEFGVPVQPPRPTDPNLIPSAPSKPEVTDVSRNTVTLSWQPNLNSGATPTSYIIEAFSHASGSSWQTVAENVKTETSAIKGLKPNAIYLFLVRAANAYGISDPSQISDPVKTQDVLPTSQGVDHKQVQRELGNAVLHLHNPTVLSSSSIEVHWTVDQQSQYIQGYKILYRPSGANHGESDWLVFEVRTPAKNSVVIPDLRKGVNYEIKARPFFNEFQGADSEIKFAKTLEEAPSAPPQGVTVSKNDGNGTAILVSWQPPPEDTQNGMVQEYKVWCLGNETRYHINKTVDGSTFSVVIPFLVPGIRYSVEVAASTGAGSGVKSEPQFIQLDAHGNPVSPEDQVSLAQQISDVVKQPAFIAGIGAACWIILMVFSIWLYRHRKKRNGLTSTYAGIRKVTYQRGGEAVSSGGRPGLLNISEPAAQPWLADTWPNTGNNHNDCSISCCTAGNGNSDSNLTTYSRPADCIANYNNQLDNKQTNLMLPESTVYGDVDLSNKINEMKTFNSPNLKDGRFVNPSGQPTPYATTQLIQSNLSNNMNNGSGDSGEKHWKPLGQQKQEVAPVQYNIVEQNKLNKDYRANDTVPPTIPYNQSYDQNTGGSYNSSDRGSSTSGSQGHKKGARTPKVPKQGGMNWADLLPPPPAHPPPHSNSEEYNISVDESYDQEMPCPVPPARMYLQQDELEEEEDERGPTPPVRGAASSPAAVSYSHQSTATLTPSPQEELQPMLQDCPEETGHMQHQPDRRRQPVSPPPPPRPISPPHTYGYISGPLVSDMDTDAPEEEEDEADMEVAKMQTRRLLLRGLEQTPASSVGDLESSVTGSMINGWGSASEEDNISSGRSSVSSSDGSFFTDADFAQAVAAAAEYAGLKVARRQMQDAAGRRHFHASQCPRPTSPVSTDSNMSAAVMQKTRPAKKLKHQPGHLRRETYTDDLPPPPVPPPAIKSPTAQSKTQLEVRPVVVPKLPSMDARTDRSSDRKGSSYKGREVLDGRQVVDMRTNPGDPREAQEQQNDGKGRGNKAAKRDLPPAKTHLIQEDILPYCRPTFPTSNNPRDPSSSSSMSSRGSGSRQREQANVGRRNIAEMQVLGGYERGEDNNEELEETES
The target is the same in test [2]. Kind of test: ELISA, Robo1 coated at 1 µg/ml, detection with anti-HSA-HRP; stability test, samples 'after treatment' (treatment not described); after treatment (stability test), binding ELISA on coated Robo1.
For test [3] the target is unchanged. Put plainly: SPR (BIAcore), Robo1 bound to CM5 chip.
For test [4], the target named is T1, Robo1 protein (ORIGEN, Art. No.: TP327713) (UniProt Q9Y6N7-5 1-1606, limits assumed).
T1 construct: Bought recombinant protein; also called receptor Robo1; receptor protein Robo1
T1 sequence (Q9Y6N7 other isoform, or with tags, fused parts or gaps limits assumed): as above
Put plainly: SPR (BIAcore), Robo1 bound to CM5 chip; column headed 'KD(M)', by arithmetic the dissociation rate; exponent doubtful. The procedure: (§1) The affinity constant between the protein and Robo1 protein was detected by SPR (Surface Plasmon resonance BIAcore 200) method. […] Kinetic measurements were performed according to the method referred by Canziani et al. (2004, Anal. Biochem. 325: 301-307). Furthermore, the affinity of the Slit2N protein (Slit2N is a protein having a molecular weight of about 120 kDa at the N-terminus of the Slit2 protein) to Robo1 protein was also determined by the same method.

The target in test [5] is T1, Robo1 protein (ORIGEN, Art. No.: …). Kind of test: SPR (BIAcore), Robo1 bound to CM5 chip. The procedure:
as §1

The target is the same in test [6]. Put plainly: SPR (BIAcore), Robo1 bound to CM5 chip; column headed 'Kd(nM)'. The procedure: as §1

“Slit2D2-HSA (as disclosed in Patent Application PCT/CN2015/092079) (from UniProt O94813 271-479; P02768 25-609)”: the equilibrium dissociation constant (Kd) in test [1] came to 2.8 nM. The molecule also yielded a concentration giving a half-maximal response (EC50) in test [2] of 215 nM. Further, the association rate constant (kon) in test [3] was found to be 177000 M⁻¹ s⁻¹.

B1: Slit2N protein (ligand, UniProt O94813 31-1121, looked up)
chain: QCSCSGSTVDCHGLALRSVPRNIPRNTERLDLNGNNITRITKTDFAGLRHLRVLQLMENKISTIERGAFQDLKELERLRLNRNHLQLFPELLFLGTAKLYRLDLSENQIQAIPRKAFRGAVDIKNLQLDYNQISCIEDGAFRALRDLEVLTLNNNNITRLSVASFNHMPKLRTFRLHSNNLYCDCHLAWLSDWLRQRPRVGLYTQCMGPSHLRGHNVAEVQKREFVCSGHQSFMAPSCSVLHCPAACTCSNNIVDCRGKGLTEIPTNLPETITEIRLEQNTIKVIPPGAFSPYKKLRRIDLSNNQISELAPDAFQGLRSLNSLVLYGNKITELPKSLFEGLFSLQLLLLNANKINCLRVDAFQDLHNLNLLSLYDNKLQTIAKGTFSPLRAIQTMHLAQNPFICDCHLKWLADYLHTNPIETSGARCTSPRRLANKRIGQIKSKKFRCSAKEQYFIPGTEDYRSKLSGDCFADLACPEKCRCEGTTVDCSNQKLNKIPEHIPQYTAELRLNNNEFTVLEATGIFKKLPQLRKINFSNNKITDIEEGAFEGASGVNEILLTSNRLENVQHKMFKGLESLKTLMLRSNRITCVGNDSFIGLSSVRLLSLYDNQITTVAPGAFDTLHSLSTLNLLANPFNCNCYLAWLGEWLRKKRIVTGNPRCQKPYFLKEIPIQDVAIQDFTCDDGNDDNSCSPLSRCPTECTCLDTVVRCSNKGLKVLPKGIPRDVTELYLDGNQFTLVPKELSNYKHLTLIDLSNNRISTLSNQSFSNMTQLLTLILSYNRLRCIPPRTFDGLKSLRLLSLHGNDISVVPEGAFNDLSALSHLAIGANPLYCDCNMQWLSDWVKSEYKEPGIARCAGPGEMADKLLLTTPSKKFTCQGPVDVNILAKCNPCLSNPCKNDGTCNSDPVDFYRCTCPYGFKGQDCDVPIHACISNPCKHGGTCHLKEGEEDGFWCICADGFEGENCEVNVDDCEDNDCENNSTCVDGINNYTCLCPPEYTGELCEEKLDFCAQDLNPCQHDSKCILTPKGFKCDCTPGYVGEHCDIDFDDCQDNKCKNGAHCTDAVNGYTCICPEGYSGLFCEFSPPMVLPR
Turning to B1, in test [4], the koff came out at 0.00339 s⁻¹. This molecule displayed a kon in test [5] of 744000 M⁻¹ s⁻¹. The same molecule yielded a Kd in test [6] of 4.5 nM.
